PMC4160023 (Nature, 2013)

Target: the molecule itself
Experiment: negative-stain electron microscopy

B1: hRegIIIα E114Q mutant (natural protein, human, UniProt Q06141 38-175, looked up)
chain: IRCPKGSKAYGSHCYALFLSPKSWTDADLACQKRPSGNLVSVLSGAEGSFVSSLVKSIGNSYSYVWIGLHDPTQGTQPNGEGWEWSSSDVMNYFAWERNPSTISSPGHCASLSRSTAFLRWKDYNCNVRLPYVCKFTD
B1: binds.
